PMC11860714

Biological target: 329 SOSIP.v8.2 Env trimer (HIV-1 clade C)
Experiment: native gel or EMSA; BN-PAGE, NuPAGE 4–12% Bis-Tris gels; 2 µg SOSIP trimers or equimolar SOSIP–ferritin (2.5 µg) and SOSIP-I53-50 (3.2 µg) NPs

“329 SOSIP.v8.2 Env trimer (domain or fragment)” was tested, and the stoichiometry N was 3.
